Test results from patent publication US20090291088A1 (Biogen, published 2009).

Experiments:
[1] = molecular target: T1, human IGF-1R(1-902)-His10 (human, UniProt P08069 31-932); test: ELISA, plate coated with rh-IGF-1R, bound Fab detected with anti-human kappa-HRP
T1 construct: Cy5-labelled in tr-FRET; also called hIGF-1R-His10; IGF-1R-His
Procedure: (§1) ELISA assays were performed to determine specific binding of the Fab fragment antibodies to soluble IGF-1R over the insulin receptor. […] Color development was stopped by addition of 4NH₂SO₄ and optical density is measured at 450 nm using a Molecular Devices plate reader and binding curves are generated.

[2] = molecular target: T2, human IGF-1R expressed on cells (human, UniProt P08069 31-1367); test: flow cytometry, MCF-7 cells
T2 construct: On MCF-7 tumor cells or on 3T3/CHO transfectants; precursor is processed into alpha and beta subunits; Signal peptide 1-30 left out as stated; also called wild type IGF-1R; IGF-1R 3T3
Procedure: The ability of Fabs to bind to the wild type IGF-1R was determined by flowcytometry using MCF-7 tumor cell line.
MCF-7 cells (Human Breast Adenocarcinoma from NCI) were split 24 hours prior to the setup of the assay to obtain 70% confluent monolayer. Routinely, MCF-7 cell line was maintained within 20 passages. Cells were lifted with cell dissociation buffer (Gibco catalog #13151-014), counted, washed and adjusted to 1×10⁶ cells/ml and one ml of cells were then added to each tube (12×75 mm tube Falcon catalog# 352054). Cells were pelleted and supernatant removed by centrifugation at 1200 rpm for 5 min and 100 μl of diluted antibodies were then added to the cell pellet. Purified Fabs were tested at a starting concentration of either 210 or 60 μg/ml with 1:3 dilutions in FACS buffer, down to 0.001 μg/ml. FACS buffer used throughout the assay was PBS (without Ca++/Mg++) containing 1% BSA (Sigma catalog# A-7906; Sigma-Aldrich Corp. (St. Louis, Mo., USA)) and 0.1% Sodium Azide (Sigma catalog #S2002). […] Samples were allowed to incubate on ice for 1 hour and 15 minutes then were washed with 2 ml FACS buffer and centrifuged at 1200 rpm for 5 minutes at 4° C. The supernatant was aspirated and 100 μl of the secondary detection antibody was added to each corresponding tube in FACS buffer. Samples were then incubated for 30 minutes on ice, in the dark. Cells were washed as described above, then, re-suspended in […] FACS buffer per tube/sample.
Cells were stained for live cell determination with Propidium Iodide staining solution (PI for dead cell exclusion; BD Pharmingen catalog# 51-66211E or 556463; use at 1:500 final in FACS buffer). Samples were run on the FACSCalibur instrument (Becton Dickinson) with 10,000 live events collected per sample.

human INSR(28-956)-His10 [3] = molecular target: T3, human INSR(28-956)-His10 (human, UniProt P06213 28-956); test: ELISA, plate coated with rh-INSR
T3 construct: range 28-956; Bought (R&D Systems 1544-IR); also called rh-INSR; soluble insulin receptor
Procedure: as §1

human IGF-1R(1-903)-Fc [4] = molecular target: T4, human IGF-1R(1-903)-Fc (human, UniProt P08069 31-933); test: competition ELISA: biotinylated hIGF-1R-Fc on streptavidin plate, 320 nM human IGF-2 His, detection with anti-His-HRP; blocked ligand human IGF-2 His
T4 construct: Made by Biogen Idec; Multimerises through IGF-1R and Fc; also called hIGF-1R-Fc; IGF-1R-Fc; not shown: C-terminal human IgG1-Fc tag

[5] = molecular target: T2, human IGF-1R expressed on cells; test: cell-based or functional assay
[6] = molecular target: T5, murine IGF-1R expressed on cells (mouse, UniProt Q60751 31-1373); test: binding to CHO transfectants
T5 construct: whole, on cells; also called mouse IGF-1R
T5 sequence (Q60751 31-1373): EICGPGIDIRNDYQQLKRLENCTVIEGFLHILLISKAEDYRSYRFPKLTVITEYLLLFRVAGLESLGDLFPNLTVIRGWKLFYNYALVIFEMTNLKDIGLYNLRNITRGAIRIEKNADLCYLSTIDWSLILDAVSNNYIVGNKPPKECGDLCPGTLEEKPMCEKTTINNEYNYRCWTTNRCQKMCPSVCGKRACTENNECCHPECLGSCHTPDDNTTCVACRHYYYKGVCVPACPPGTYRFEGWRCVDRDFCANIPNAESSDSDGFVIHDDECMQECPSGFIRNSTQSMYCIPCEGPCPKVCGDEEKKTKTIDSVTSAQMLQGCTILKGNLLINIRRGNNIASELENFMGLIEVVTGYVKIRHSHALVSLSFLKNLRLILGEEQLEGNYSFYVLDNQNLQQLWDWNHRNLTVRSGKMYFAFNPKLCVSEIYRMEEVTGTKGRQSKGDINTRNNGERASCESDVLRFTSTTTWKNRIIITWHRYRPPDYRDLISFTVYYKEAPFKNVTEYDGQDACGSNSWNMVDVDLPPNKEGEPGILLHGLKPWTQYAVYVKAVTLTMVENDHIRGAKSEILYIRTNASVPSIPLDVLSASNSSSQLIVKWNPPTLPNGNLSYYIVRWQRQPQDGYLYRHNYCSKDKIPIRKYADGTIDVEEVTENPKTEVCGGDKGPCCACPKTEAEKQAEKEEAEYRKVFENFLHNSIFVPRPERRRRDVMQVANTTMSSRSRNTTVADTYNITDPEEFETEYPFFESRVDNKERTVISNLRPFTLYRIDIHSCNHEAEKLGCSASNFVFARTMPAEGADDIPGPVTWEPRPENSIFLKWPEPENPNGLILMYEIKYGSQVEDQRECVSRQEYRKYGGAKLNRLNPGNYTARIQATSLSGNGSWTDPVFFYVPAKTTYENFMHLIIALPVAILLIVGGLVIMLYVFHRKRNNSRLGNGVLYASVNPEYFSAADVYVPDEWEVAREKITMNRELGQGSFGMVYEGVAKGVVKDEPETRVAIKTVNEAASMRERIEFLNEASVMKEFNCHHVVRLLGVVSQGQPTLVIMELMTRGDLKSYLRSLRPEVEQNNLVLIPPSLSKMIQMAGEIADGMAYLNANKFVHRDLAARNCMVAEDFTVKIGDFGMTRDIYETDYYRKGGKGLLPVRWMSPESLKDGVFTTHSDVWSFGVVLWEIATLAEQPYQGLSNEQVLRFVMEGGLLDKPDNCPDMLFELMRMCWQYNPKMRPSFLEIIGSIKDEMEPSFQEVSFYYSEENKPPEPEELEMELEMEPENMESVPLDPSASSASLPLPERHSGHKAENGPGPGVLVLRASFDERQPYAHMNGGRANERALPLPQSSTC

human IGF-1R(1-903)-Fc [7] = molecular target: T4, human IGF-1R(1-903)-Fc; test: ELISA on hIGF-1R-Fc, competitor biotinylated M13-C06
[8] = molecular target: T1, human IGF-1R(1-902)-His10; test: SPR, antibody over captured IGF-1R-10His
Procedure: All surface plasmon resonance (SPR) experiments were performed on a Biacore 3000 set to 25° C. using HBS-EP (Biacore, Cat. No. BR-1001-88) as the running buffer. A biotin-labeled anti-HisTag antibody (biotin-PENTA-His, Qiagen Cat. No. 34440) was immobilized to saturation on a Biacore SA chip (Cat. No. BR-1000-32) surface by injection at 500 nM in HBS-EP buffer. […] Subsequent to IGF-1R injections, flow rates were increased to 20 μL/min. A second, 130 μL injection of anti-IGF-1R antibody or Fab was performed to investigate interactions with the receptor. Each antibody and Fab was serially diluted from 64 nM to 0.5 nM to obtain concentration dependent kinetic binding curves. Each injection series was regenerated using 3×10 μL injections of 10 mM Acetate, pH 4.0, at 20 μL/min. Each curve was double referenced using (1) data obtained from a streptavidin surface devoid of IGF-1R and (2) data from a primary injection of IGF-1R followed by a secondary injection of HBS-EP buffer. The concentration series for each antibody and Fab was fit to the 1:1 binding model provided within the BiaEvaluation software of the manufacturer.
The rates at which the antibodies accumulate on the IGF-1R coated surface when applied at various concentrations as well as the rates at which they dissociated during applications of pure buffer were investigated by fitting the data to a 1:1 binding model. Approximate kinetic rate constants and equilibrium dissociation constant were calculated (Table 14).

human IGF-1R(1-903)-Fc [9] = molecular target: T4, human IGF-1R(1-903)-Fc; test: competition ELISA: biotinylated hIGF-1R-Fc on streptavidin plate, 320 nM human IGF-1 His, detection with anti-His-HRP; blocked ligand human IGF-1 His
Procedure: hIGF-1R-Fc was biotinylated using EZ-Link Sulfo-NHS-LC-Biotin according to the protocol provided by the manufacturer (Pierce Cat. No. 21335). Biotinylated human IGF-1R-Fc at 5 μg/ml was added to the wells of SigmaScreen streptavidin-coated 96-well plates (Sigma, Cat. No. M5432-5EA; Sigma-Aldrich Corp. (St. Louis, Mo., USA)) at 100 μL/well and incubated overnight at 2-8° C. The plates were then washed four times with 200 μL/well PBST. […] The dilutions were added to the plates in duplicate at 100 μL/well and the plates were incubated at RT for 1 hour. The plates were then washed four times with 200 μL/well PBST. An HRP-conjugated anti-Histag antibody (Penta-His HRP Conjugate, QIAGEN, Cat. No. 1014992) was diluted 1:1000 in PBST and added to plates at 100 μL/well, and the plates were incubated at RT for one hour. The plates were then washed four times with 200 μL/well PBST. SureBlue Reserve TMB Microwell Peroxidase Substrate (KPL, Cat. No. 53-00-01) was added to plates at 100 μL/well followed by 1% phosphoric acid at 100 μL/well once the desired reaction was observed. The absorbance of each well was determined at 450 nm, and the results were normalized and plotted against the log of antibody concentration.

[10] = molecular target: T6, Rhesus IGF-1R expressed on CHO cells (rhesus monkey, UniProt I2CWY3 31-1367); test: flow cytometry and confocal microscopy, CHO transfectants
T6 construct: whole, on cells; also called Rhesus IGF-1R/CHO
T6 sequence (I2CWY3 entry or part of it): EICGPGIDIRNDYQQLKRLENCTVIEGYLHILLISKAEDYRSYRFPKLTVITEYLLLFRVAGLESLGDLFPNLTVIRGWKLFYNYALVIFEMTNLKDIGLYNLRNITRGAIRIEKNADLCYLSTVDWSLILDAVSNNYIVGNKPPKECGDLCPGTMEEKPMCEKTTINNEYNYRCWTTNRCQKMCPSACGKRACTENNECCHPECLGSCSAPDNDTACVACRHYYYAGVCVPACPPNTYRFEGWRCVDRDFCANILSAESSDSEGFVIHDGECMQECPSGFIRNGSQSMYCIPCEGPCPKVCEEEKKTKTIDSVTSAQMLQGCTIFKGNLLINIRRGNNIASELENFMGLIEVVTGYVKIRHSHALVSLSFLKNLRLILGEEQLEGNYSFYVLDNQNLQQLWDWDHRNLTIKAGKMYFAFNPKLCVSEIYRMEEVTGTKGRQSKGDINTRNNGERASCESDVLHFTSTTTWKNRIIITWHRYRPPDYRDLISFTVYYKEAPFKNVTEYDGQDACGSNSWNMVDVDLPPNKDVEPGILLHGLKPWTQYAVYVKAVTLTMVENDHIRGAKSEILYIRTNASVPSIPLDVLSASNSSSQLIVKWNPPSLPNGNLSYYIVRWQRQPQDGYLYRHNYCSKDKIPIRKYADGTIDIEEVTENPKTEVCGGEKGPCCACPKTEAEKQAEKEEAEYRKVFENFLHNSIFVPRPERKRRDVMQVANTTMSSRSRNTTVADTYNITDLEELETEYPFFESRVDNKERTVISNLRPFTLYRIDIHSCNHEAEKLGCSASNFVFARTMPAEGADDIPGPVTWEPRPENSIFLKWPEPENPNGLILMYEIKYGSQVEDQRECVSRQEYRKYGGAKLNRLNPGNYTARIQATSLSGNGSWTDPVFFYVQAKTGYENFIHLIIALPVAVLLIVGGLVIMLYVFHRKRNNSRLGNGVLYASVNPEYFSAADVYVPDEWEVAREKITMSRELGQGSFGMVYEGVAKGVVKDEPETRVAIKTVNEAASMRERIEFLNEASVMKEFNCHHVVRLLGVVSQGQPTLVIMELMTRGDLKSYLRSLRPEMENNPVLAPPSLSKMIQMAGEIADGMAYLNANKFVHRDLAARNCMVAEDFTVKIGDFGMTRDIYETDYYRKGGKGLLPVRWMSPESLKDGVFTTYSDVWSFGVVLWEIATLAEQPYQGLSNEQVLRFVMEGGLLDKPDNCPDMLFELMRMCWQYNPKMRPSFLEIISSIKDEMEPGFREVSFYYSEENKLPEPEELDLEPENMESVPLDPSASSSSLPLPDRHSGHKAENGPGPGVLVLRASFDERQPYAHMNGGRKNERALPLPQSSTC

human IGF-1R(1-903)-Fc [11] = molecular target: T4, human IGF-1R(1-903)-Fc; test: ELISA, plate coated with soluble IGF-1 receptor Fc fusion protein, detection with anti-human kappa-HRP
Procedure: The plate was washed with phosphate-buffered saline (PBS, Irvine Scientific, Cat#9240), pH 7.4 plus 0.025% Tween 20 in the Skan Washer 300 (Skatron Instruments), blocked with buffer containing 1% nonfat milk, 0.05% Tween 20 in PBS, pH 7.4, and then incubated at room temperature for 1 hour. After incubation plate was washed with PBS plus 0.025% Tween 20 in the Skan Washer 300. […] Following a one hour incubation at room temperature, plate was washed with PBS plus 0.025% Tween 20 in the Skan Washer 300. […] Plate incubated for 1 hour at room temperature was washed with PBS plus 0.025% Tween 20 in the Skan Washer 300. […] The absorbance was measured at 450 nm, background 540 nm for TMB using the Molecular Devices plate reader. Data was analyzed using the SOFTMAX PRO software package version 4.3 LS (Molecular Devices Corp.).

human INSR(28-956)-His10 [12] = molecular target: T3, human INSR(28-956)-His10; test: ELISA on coated rh-INSR
Procedure: as §1

B1: M14-B01 Fab (Fab, V domains shown)
VH: EVQLLESGGGLVQPGGSLRLSCAASGFTFSNYHMAWVRQAPGKGLEWVSVISPTGGRTTYADSVKGRFTISRDNSKNTLYLQMNSLRAEDTATYYCARAGYSYGYGYFDYWGQGTLVTVSS
VL: DIQMTQFPATLSVSPGERATLSCRASQSVMRNLAWYQQKPGQPPRLLIYGASKRATGIPARFSGSGSGTAFTLTISNLEPEDFAVYYCHQRSTWPLGTFGPGTKLEAK
notes: Human phage Fab, kappa
B1 was tested. Which “EC50 (read off the curve)” value [1] did it give?
The value was about 6 nM.

What about the EC50 [2] of the same binder?
The EC50 was 29.4 nM.

Does B1 bind (human INSR(28-956)-His10 [3])?
Result: no binding (tested: about 20000 nM)

B2: M14-C03.G4.P.agly (antibody, human IgG4 S228P, kappa, V domains shown)
VH: EVQLLESGGGLVQPGGSLRLSCAASGFTFSKYMMSWVRQAPGKGLEWVSYISPSGGLTWYADSVKGRFTISRDNSKNTLYLQMNSLRAEDTAVYYCARDGARGYGMDVWGQGTTVTVSS
VL: DIQMTQSPATLSLSPGERATLSCRASQSVSSYLAWYQQKPGQAPRLLIYDASNRATGIPARFSGSGSGTDFTLTISSLEPEDFAVYYCQQRSNWPPEVTFGPGTKVDIKR
notes: Full-length human aglycosylated IgG4.P, kappa; Places that say only 'M14-C03 antibody' were assigned to this version; also called M14-C03_Ab
Which results are given for B2?
IC50 (read off the curve) (human IGF-1R(1-903)-Fc [4]): ~1 nM; inhibition of IGF-1 and IGF-2 mediated IGF-1R receptor phosphorylation (EC50) [5]: < 1 nM; binding result [6]: binds; percent competition (relative to self-competition) (human IGF-1R(1-903)-Fc [7]): 90 to 100%; Kd [8]: 0.36 nM; koff [8]: 0.0002 s⁻¹; kon [8]: 570000 M⁻¹ s⁻¹; IC50 (read off the curve) (human IGF-1R(1-903)-Fc [9]): ~5 nM; binding result [10]: binds; EC50 (read off the curve) (human IGF-1R(1-903)-Fc [11]): ~0.07 nM

B3: M12-E01 Fab (Fab, V domains shown)
VH: EVQLLESGGGLVQPGGSLRLSCAASGFTFSPYSMLWVRQAPGKGLEWVSSIGSSGGSTRYADSVKGRFTISRDNSKNTLYLQMNSLRAEDTAMYYCARVRGILHYDILIGRNLYYYYMDVWGKGTTVTVSS
VL: QYELTQPPSVSEAPRQRVTISCSGSSSNIGNNAINWYQQLPGKPPKLLIYYDDLLPSGVSDRFSGSKSGTSGSLAISGLQSEDEADYYCAAWDDNLNGVIFGGGTKLTVL
Does B3 bind (human INSR(28-956)-His10 [12])?
Result: no binding (tested: 2 µM-0.2 nM)
